One substance from PMC4569402 can be followed below.

In the assay the target is wild-type influenza B virus nucleoprotein (BNP), B/panama/45/1990 (influenza B virus (B/panama/45/1990)). Briefly: negative-stain electron microscopy.

A word on the stoichiometry N: it is a count of units in the complex or per binding partner. “wild-type influenza B virus nucleoprotein (BNP), B/panama/45/1990 (natural protein)” gave a stoichiometry N of more than 6.
